Among the data in patent US5523209 are Kd and percent of the high affinity binding restored after washout of the metabolic inhibitors values, retold here.

Assay [1] addresses integrin α5 β1 on CHO cells (hamster). The experiment in a line: binding of soluble 125I-Fn to CHO cells.
Assay [2] shares this target. In words: 125I-Fn binding to CHO cells washed free of NaN3 and 2-deoxyglucose.

Broadly, the Kd is the equilibrium constant for the complex coming apart. The low end stands for higher affinity, the high end for lower affinity.

“fibronectin (from UniProt P02751) (ligand)” came in with a Kd in assay [1] of 100 nM. Besides, the percent of the high affinity binding restored after washout of the metabolic inhibitors in assay [2] was determined as 75%.
